The labels stand for the following.
T1: human GIP receptor (human, UniProt P48546 22-466)
T1 sequence (looked up): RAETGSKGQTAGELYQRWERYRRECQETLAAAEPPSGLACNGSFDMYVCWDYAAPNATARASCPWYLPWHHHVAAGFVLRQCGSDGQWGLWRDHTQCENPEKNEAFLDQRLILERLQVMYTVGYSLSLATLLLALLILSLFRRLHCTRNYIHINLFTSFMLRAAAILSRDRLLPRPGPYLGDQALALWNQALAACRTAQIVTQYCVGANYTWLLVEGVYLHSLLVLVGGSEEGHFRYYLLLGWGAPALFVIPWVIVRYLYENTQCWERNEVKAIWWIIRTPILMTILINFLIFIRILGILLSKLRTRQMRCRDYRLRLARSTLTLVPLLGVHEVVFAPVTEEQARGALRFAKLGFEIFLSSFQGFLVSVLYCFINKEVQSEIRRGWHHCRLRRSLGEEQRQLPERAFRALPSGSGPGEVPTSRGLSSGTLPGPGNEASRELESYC

B1: triple agonist of SEQ ID NO: 2 (peptide)
peptide: HXQGTFTSDVSSYLDGQAQKEFIAWLVKGC
HELM: PEPTIDE1{H.[Aib].Q.G.T.F.T.S.D.V.S.S.Y.L.D.G.Q.A.Q.K.E.F.I.A.W.L.V.K.G.C.[am]}$$$$V2.0; N-terminus assumed
SMILES: CC[C@H](C)[C@H](NC(=O)[C@H](Cc1ccccc1)NC(=O)[C@H](CCC(=O)O)NC(=O)[C@H](CCCCN)NC(=O)[C@H](CCC(N)=O)NC(=O)[C@H](C)NC(=O)[C@H](CCC(N)=O)NC(=O)CNC(=O)[C@H](CC(=O)O)NC(=O)[C@H](CC(C)C)NC(=O)[C@H](Cc1ccc(O)cc1)NC(=O)[C@H](CO)NC(=O)[C@H](CO)NC(=O)[C@@H](NC(=O)[C@H](CC(=O)O)NC(=O)[C@H](CO)NC(=O)[C@@H](NC(=O)[C@H](Cc1ccccc1)NC(=O)[C@@H](NC(=O)CNC(=O)[C@H](CCC(N)=O)NC(=O)C(C)(C)NC(=O)[C@@H](N)Cc1c[nH]cn1)[C@@H](C)O)[C@@H](C)O)C(C)C)C(=O)N[C@@H](C)C(=O)N[C@@H](Cc1c[nH]c2ccccc12)C(=O)N[C@@H](CC(C)C)C(=O)N[C@H](C(=O)N[C@@H](CCCCN)C(=O)NCC(=O)N[C@@H](CS)C(N)=O)C(C)C

Bridges are numbered along the chain shown (N, C = ends). Where no end group is shown, it is not given here. [ ]: non-standard residue; d: D form. The star is where a group is joined. Acetyl(2-(4-imidazolyl)) = O=C(Cc1c[nH]cn1)*; Aib = CC(C)(N)C(=O)O

The target in one assay is human GLP-1 receptor (human, UniProt P43220 24-463). The assay is described as follows: cell-based or functional assay.
For the molecule [Acetyl(2-(4-imidazolyl))]GEGTFISDLSKYMDEQAVQLFVEWLMAGGPSSGAPPPSHG-NH2 [triple agonist of SEQ ID NO: 12], the “in vitro Activity Compared to Native Peptide (%), vs GLP-1” value came out at 0.4%.

Regarding Y[Aib]QGTFTSDYSKYLDEKRAKEFVQWLLCHHPSSGQPPPS (bridge 16-20; not fully specified (C-terminus)) [triple agonist of SEQ ID NO: 95], the “in vitro Activity Compared to Native Peptide (%), vs GLP-1” value was determined as 2.1%.

As to [Acetyl(2-(4-imidazolyl))][Aib]QGTFTSDYSIAMDEIHQKDFVNWLLNTKC (bridge 16-20; not fully specified (C-terminus)) [triple agonist of SEQ ID NO: 94], the “in vitro Activity Compared to Native Peptide (%), vs GLP-1” value came out at 0.5%.

In the case of [Acetyl(2-(4-imidazolyl))]GEGTFTSDLSKYLDSRRQQLFVQWLKAGGPSSGAPPPSHG-NH2 [triple agonist of SEQ ID NO: 11], the “in vitro Activity Compared to Native Peptide (%), vs GLP-1” value was determined as 1.4%.

With [Acetyl(2-(4-imidazolyl))]GEGTFISDYSIQLDEIAVQDFVEWLLAQKPSSGAPPPSHG-NH2 [triple agonist of SEQ ID NO: 13], the “in vitro Activity Compared to Native Peptide (%), vs GLP-1” value is less than 0.1%.

On to Y[Aib]QGTFTSDYSKALDEKAAKDFVNWLLDQHPSSGQPPPSC (bridge 16-20; not fully specified (C-terminus); also: ring type not given here) [triple agonist of SEQ ID NO: 102], for which the “in vitro Activity Compared to Native Peptide (%), vs GLP-1” value was 23.3%.

H[Aib]QGTFTSDVSKYLDGQAAQEFVAWLLAGGGPSSGAPPPSC-NH2 [triple agonist of SEQ ID NO: 10]: the “in vitro Activity Compared to Native Peptide (%), vs GLP-1” value was found to be 46%.

In the case of Y[Aib]QGTFTSDYSKALDEKAAKDFVNWLLDHHPSSGQPPPSC (bridge 16-20; not fully specified (C-terminus)) [triple agonist of SEQ ID NO: 99], the “in vitro Activity Compared to Native Peptide (%), vs GLP-1” value worked out at 20.9%.

Take Y[Aib]QGTFTSDYSKALDEKAAKEFVQWLLDQHPSSGQPPPSC (bridge 16-20; not fully specified (C-terminus); also: ring type not given here) [triple agonist of SEQ ID NO: 100]: the “in vitro Activity Compared to Native Peptide (%), vs GLP-1” value was found to be 42.2%.

Regarding B1, the “in vitro Activity Compared to Native Peptide (%), vs GLP-1” value came to 5.9%.

The next assay deals with human GCG receptor (human, UniProt P47871 26-477). In words: cell-based or functional assay.
human GCG receptor, sequence (P47871 26-477): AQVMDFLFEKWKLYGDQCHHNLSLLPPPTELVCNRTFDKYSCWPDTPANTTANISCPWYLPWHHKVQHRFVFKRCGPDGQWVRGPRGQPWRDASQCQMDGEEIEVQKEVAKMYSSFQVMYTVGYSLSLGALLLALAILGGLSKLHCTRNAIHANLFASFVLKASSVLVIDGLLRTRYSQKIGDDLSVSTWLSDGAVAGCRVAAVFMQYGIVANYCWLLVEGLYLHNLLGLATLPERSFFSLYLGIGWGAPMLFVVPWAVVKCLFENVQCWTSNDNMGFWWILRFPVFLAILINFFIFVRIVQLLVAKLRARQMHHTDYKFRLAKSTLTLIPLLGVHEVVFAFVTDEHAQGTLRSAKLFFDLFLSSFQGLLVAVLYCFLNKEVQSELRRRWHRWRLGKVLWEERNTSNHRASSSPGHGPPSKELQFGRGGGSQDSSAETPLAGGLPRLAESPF
For [Acetyl(2-(4-imidazolyl))]GEGTFISDLSKYMDEQAVQLFVEWLMAGGPSSGAPPPSHG-NH2 [triple agonist of SEQ ID NO: 12], the “in vitro Activity Compared to Native Peptide (%), vs Glucagon” value is less than 0.1%.

As to Y[Aib]QGTFTSDYSKYLDEKRAKEFVQWLLCHHPSSGQPPPS (bridge 16-20; not fully specified (C-terminus)) [triple agonist of SEQ ID NO: 95], the “in vitro Activity Compared to Native Peptide (%), vs Glucagon” value worked out at 0.4%.

As to [Acetyl(2-(4-imidazolyl))][Aib]QGTFTSDYSIAMDEIHQKDFVNWLLNTKC (bridge 16-20; not fully specified (C-terminus)) [triple agonist of SEQ ID NO: 94], the “in vitro Activity Compared to Native Peptide (%), vs Glucagon” value is less than 0.1%.

In the case of [Acetyl(2-(4-imidazolyl))]GEGTFTSDLSKYLDSRRQQLFVQWLKAGGPSSGAPPPSHG-NH2 [triple agonist of SEQ ID NO: 11], the “in vitro Activity Compared to Native Peptide (%), vs Glucagon” value was less than 0.1%.

Consider [Acetyl(2-(4-imidazolyl))]GEGTFISDYSIQLDEIAVQDFVEWLLAQKPSSGAPPPSHG-NH2 [triple agonist of SEQ ID NO: 13], for which the “in vitro Activity Compared to Native Peptide (%), vs Glucagon” value is less than 0.1%.

As to Y[Aib]QGTFTSDYSKALDEKAAKDFVNWLLDQHPSSGQPPPSC (bridge 16-20; not fully specified (C-terminus); also: ring type not given here) [triple agonist of SEQ ID NO: 102], the “in vitro Activity Compared to Native Peptide (%), vs Glucagon” value worked out at 29.5%.

Consider H[Aib]QGTFTSDVSKYLDGQAAQEFVAWLLAGGGPSSGAPPPSC-NH2 [triple agonist of SEQ ID NO: 10], for which the “in vitro Activity Compared to Native Peptide (%), vs Glucagon” value was less than 0.1%.

For the molecule Y[Aib]QGTFTSDYSKALDEKAAKDFVNWLLDHHPSSGQPPPSC (bridge 16-20; not fully specified (C-terminus)) [triple agonist of SEQ ID NO: 99], the “in vitro Activity Compared to Native Peptide (%), vs Glucagon” value came out at 14.9%.

With Y[Aib]QGTFTSDYSKALDEKAAKEFVQWLLDQHPSSGQPPPSC (bridge 16-20; not fully specified (C-terminus); also: ring type not given here) [triple agonist of SEQ ID NO: 100], the “in vitro Activity Compared to Native Peptide (%), vs Glucagon” value was determined as 12.7%.

As for B1, the “in vitro Activity Compared to Native Peptide (%), vs Glucagon” value is less than 0.1%.

The target in the next assay is T1, human GIP receptor. In words: cell-based or functional assay.
With [Acetyl(2-(4-imidazolyl))]GEGTFISDLSKYMDEQAVQLFVEWLMAGGPSSGAPPPSHG-NH2 [triple agonist of SEQ ID NO: 12], the “in vitro Activity Compared to Native Peptide (%), vs GIP” value is less than 0.1%.

With Y[Aib]QGTFTSDYSKYLDEKRAKEFVQWLLCHHPSSGQPPPS (bridge 16-20; not fully specified (C-terminus)) [triple agonist of SEQ ID NO: 95], the “in vitro Activity Compared to Native Peptide (%), vs GIP” value is less than 0.1%.

As for [Acetyl(2-(4-imidazolyl))][Aib]QGTFTSDYSIAMDEIHQKDFVNWLLNTKC (bridge 16-20; not fully specified (C-terminus)) [triple agonist of SEQ ID NO: 94], the “in vitro Activity Compared to Native Peptide (%), vs GIP” value was less than 0.1%.

Turning to [Acetyl(2-(4-imidazolyl))]GEGTFTSDLSKYLDSRRQQLFVQWLKAGGPSSGAPPPSHG-NH2 [triple agonist of SEQ ID NO: 11], the “in vitro Activity Compared to Native Peptide (%), vs GIP” value is less than 0.1%.

Turning to [Acetyl(2-(4-imidazolyl))]GEGTFISDYSIQLDEIAVQDFVEWLLAQKPSSGAPPPSHG-NH2 [triple agonist of SEQ ID NO: 13], the “in vitro Activity Compared to Native Peptide (%), vs GIP” value is less than 0.1%.

Regarding Y[Aib]QGTFTSDYSKALDEKAAKDFVNWLLDQHPSSGQPPPSC (bridge 16-20; not fully specified (C-terminus); also: ring type not given here) [triple agonist of SEQ ID NO: 102], the “in vitro Activity Compared to Native Peptide (%), vs GIP” value was 58%.

As for H[Aib]QGTFTSDVSKYLDGQAAQEFVAWLLAGGGPSSGAPPPSC-NH2 [triple agonist of SEQ ID NO: 10], the “in vitro Activity Compared to Native Peptide (%), vs GIP” value is less than 0.1%.

As to Y[Aib]QGTFTSDYSKALDEKAAKDFVNWLLDHHPSSGQPPPSC (bridge 16-20; not fully specified (C-terminus)) [triple agonist of SEQ ID NO: 99], the “in vitro Activity Compared to Native Peptide (%), vs GIP” value was 57.7%.

Turning to Y[Aib]QGTFTSDYSKALDEKAAKEFVQWLLDQHPSSGQPPPSC (bridge 16-20; not fully specified (C-terminus); also: ring type not given here) [triple agonist of SEQ ID NO: 100], the “in vitro Activity Compared to Native Peptide (%), vs GIP” value is 118%.

On to B1, for which the “in vitro Activity Compared to Native Peptide (%), vs GIP” value was less than 0.1%.

The values are drawn from patent US20250114463A1, “LIVER-TARGETED DRUG AND USE THEREOF” (HANMI PHARM. CO., LTD., priority 2021, published 2025).
